{
  "source": "paper PMC3460868",
  "about": "“Crosstalk of Escherichia coli FadR with Global Regulators in Expression of Fatty Acid Transport Genes”",
  "conditions_in_all_cases": "protein: recombinant; tags: His6 (pET28); chain copies: 2; label: DIG-ddUTP 3' (terminal transferase); blunt",
  "key": {"[1]": {"biological_target": "T1, FadR (Escherichia coli, UniProt P0A8V6 1-239)", "T1 sequence (P0A8V6 whole entry)": "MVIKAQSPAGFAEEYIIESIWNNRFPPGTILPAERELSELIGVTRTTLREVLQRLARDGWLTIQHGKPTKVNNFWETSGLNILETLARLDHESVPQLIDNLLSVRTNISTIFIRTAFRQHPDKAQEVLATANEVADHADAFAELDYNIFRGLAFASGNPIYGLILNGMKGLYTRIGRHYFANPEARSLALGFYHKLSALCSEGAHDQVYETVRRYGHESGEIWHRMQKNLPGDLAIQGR", "test": "EMSA; essentially complete binding by 50 nM FadR; Roche binding buffer (composition not given), 15 min, room temperature; FadR: 0.1 pmol probe in 10 ul, 0-10 pmol protein, 7% native PAGE; CRP: 0.6 pmol probe in 20 ul (legend; Methods say 0.1 or 0.2 pmol), 5-20 pmol protein, 6.5% native PAGE"}, "[2]": {"biological_target": "CRP (Escherichia coli, UniProt P0ACJ8 1-210)", "sequence (P0ACJ8 whole entry)": "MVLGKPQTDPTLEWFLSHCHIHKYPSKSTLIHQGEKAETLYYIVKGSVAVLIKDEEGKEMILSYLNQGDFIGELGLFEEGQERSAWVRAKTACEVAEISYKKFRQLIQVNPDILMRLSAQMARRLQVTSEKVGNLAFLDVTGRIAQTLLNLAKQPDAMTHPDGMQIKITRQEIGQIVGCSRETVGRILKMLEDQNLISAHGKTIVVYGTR", "test": "EMSA; cAMP (200 pmol in 20 ul); Roche binding buffer (composition not given), 15 min, room temperature; FadR: 0.1 pmol probe in 10 ul, 0-10 pmol protein, 7% native PAGE; CRP: 0.6 pmol probe in 20 ul (legend; Methods say 0.1 or 0.2 pmol), 5-20 pmol protein, 6.5% native PAGE"}, "[3]": {"biological_target": "T1, FadR", "test": "EMSA; affinity comparable to the fadL sites; Roche binding buffer (composition not given), 15 min, room temperature; FadR: 0.1 pmol probe in 10 ul, 0-10 pmol protein, 7% native PAGE; CRP: 0.6 pmol probe in 20 ul (legend; Methods say 0.1 or 0.2 pmol), 5-20 pmol protein, 6.5% native PAGE"}},
  "data": [
    {"binder": "fadL FadR site 1 (dsDNA) DNA 1: GCAACATTCCAGCTGGTCCGACCTATACTCTCGCC DNA 2: GGCGAGAGTATAGGTCGGACCAGCTGGAATGTTGC", "values": [
      {"measurement": "binding result", "setting": "[1]", "value": "binds"}
    ]},
    {"binder": "fadH CRP site 2 (probe 2) (dsDNA) DNA 1: CACCGGGCGTATTCTTTTTGAATCCCATCACAAACCCCGCACTCC DNA 2: GGAGTGCGGGGTTTGTGATGGGATTCAAAAAGAATACGCCCGGTG", "values": [
      {"measurement": "binding result", "setting": "[2]", "value": "binds"}
    ]},
    {"binder": "fadD FadR site 1 (dsDNA) DNA 1: GTAATTATCAAGCTGGTATGATGAGTTAATATTATG DNA 2: CATAATATTAACTCATCATACCAGCTTGATAATTAC", "values": [
      {"measurement": "binding result", "setting": "[3]", "value": "binds"}
    ]},
    {"binder": "fadD CRP site (dsDNA) DNA 1: GTAAAGATAAAAATAAATAGTGACGCGCTTCGCAACCTTTTCGTTGGG DNA 2: CCCAACGAAAAGGTTGCGAAGCGCGTCACTATTTATTTTTATCTTTAC", "values": [
      {"measurement": "binding result", "setting": "[2]", "value": "binds"}
    ]},
    {"binder": "fadH CRP site 1 (probe 1) (dsDNA) DNA 1: GTAACCTGGATAAAACGCGACAAGCGTCGCATCCGGCGTTATCACCGG DNA 2: CCGGTGATAACGCCGGATGCGACGCTTGTCGCGTTTTATCCAGGTTAC", "values": [
      {"measurement": "binding result", "setting": "[2]", "value": "binds"}
    ]},
    {"binder": "fadL CRP site 2 (probe 2) (dsDNA) DNA 1: CCCTACACTTCGCGCTCCTGTTACAGCACGTAACATAGTTTGTATAAAAATAAATC DNA 2: GATTTATTTTTATACAAACTATGTTACGTGCTGTAACAGGAGCGCGAAGTGTAGGG", "values": [
      {"measurement": "binding result", "setting": "[2]", "value": "no binding"}
    ]},
    {"binder": "fadL FadR site 2 (dsDNA) DNA 1: CTCTCGCCACTGGTCTGATTTCTAAGATGTACCTC DNA 2: GAGGTACATCTTAGAAATCAGACCAGTGGCGAGAG", "values": [
      {"measurement": "binding result", "setting": "[1]", "value": "binds"}
    ]}
  ]
}
